Measured values reported in IntAct's records for PubMed 17540172.

B1: "Lethal(3)malignant brain tumor-like protein 1" (Homo sapiens), Q9Y468 (parent)
chain: MHLVAGDSPGSGPHLPATAFIIPASSATLGLPSSALDVSCFPREPIHVGAPEQVAGCEPVSATVLPQLSAGPASSSTSTVRLLEWTEAAAPPPGGGLRFRISEYKPLNMAGVEQPPSPELRQEGVTEYEDGGAPAGDGEAGPQQAEDHPQNPPEDPNQDPPEDDSTCQCQACGPHQAAGPDLGSSNDGCPQLFQERSVIVENSSGSTSASELLKPMKKRKRREYQSPSEEESEPEAMEKQEEGKDPEGQPTASTPESEEWSSSQPATGEKKECWSWESYLEEQKAITAPVSLFQDSQAVTHNKNGFKLGMKLEGIDPQHPSMYFILTVAEVCGYRLRLHFDGYSECHDFWVNANSPDIHPAGWFEKTGHKLQPPKGYKEEEFSWSQYLRSTRAQAAPKHLFVSQSHSPPPLGFQVGMKLEAVDRMNPSLVCVASVTDVVDSRFLVHFDNWDDTYDYWCDPSSPYIHPVGWCQKQGKPLTPPQDYPDPDNFCWEKYLEETGASAVPTWAFKVRPPHSFLVNMKLEAVDRRNPALIRVASVEDVEDHRIKIHFDGWSHGYDFWIDADHPDIHPAGWCSKTGHPLQPPLGPREPSSASPGGCPPLSYRSLPHTRTSKYSFHHRKCPTPGCDGSGHVTGKFTAHHCLSGCPLAERNQSRLKAELSDSEASARKKNLSGFSPRKKPRHHGRIGRPPKYRKIPQEDFQTLTPDVVHQSLFMSALSAHPDRSLSVCWEQHCKLLPGVAGISASTVAKWTIDEVFGFVQTLTGCEDQARLFKDEARIVRVTHVSGKTLVWTVAQLGDLVCSDHLQEGKGILETGVHSLLCSLPTHLLAKLSFASDSQY

Variants of: B1
Conditions: with h14_human H1-4, P10412
h14_human H1-4, P10412, sequence (P10412 whole entry): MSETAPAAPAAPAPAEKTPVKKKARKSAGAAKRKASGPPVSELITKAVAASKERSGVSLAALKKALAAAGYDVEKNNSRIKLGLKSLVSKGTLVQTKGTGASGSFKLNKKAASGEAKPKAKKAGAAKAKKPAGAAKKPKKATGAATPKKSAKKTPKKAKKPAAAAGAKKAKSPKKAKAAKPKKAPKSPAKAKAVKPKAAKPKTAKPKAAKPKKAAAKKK

Row | Variant | effect of a mutation on the interaction
1 | D423N | decreasing interaction

Variants of: B1
Conditions: with h4_human H4C16, P62805

Row | Variant | effect of a mutation on the interaction
2 | D423N | decreasing interaction

Variants of: B1
Conditions: with h14_human H1-4, P10412
Remark: another data set of the same source

Row | Variant | effect of a mutation on the interaction
3 | F447A | decreasing interaction
